Results taken from patent US20260217833A1 (APTEVO RESEARCH AND DEVELOPMENT, published 2026).
Changes are numbered by the printed parent chain.

B1: PC401003 (bispecific antibody)
chain: DIQMTQSPSSLSASVGDRVTITCRASQDINKFLSWYQQKPGKAPKLLIHYTSSLQSGVPSRFSGSGSGTDFTLTISSLQPEDFATYYCLQYDNLYTFGQGTKLEIKGGGGSGGGGSGGGGSGGGGSEVQLVESGGGLVQPGGSLRLSCAASGFTFSDYGMAWVRQAPGKGLEWVSFITSLAYIIYYADSVKGRFTISRDNAKNSLYLQMNSLRAEDTAVYYCARNYGSSPYYFDYWGQGTLVTVSSEPKSSDKTHTCPPCPAPPAAAPSVFLFPPKPKDTLMISRTPEVTCVVVDVSHEDPEVKFNWYVDGVEVHNAKTKPREEQYNSTYRVVSVLTVLHQDWLNGKEYKCAVSNKALPAPIEKTISKAKGQPREPQVYTLPPSRDELTKNQVSLTCLVKGFYPSDIAVEWESNGQPENNYKTTPPVLDSDGSFFLYSKLTVDKSRWQQGNVFSCSVMHEALHNHYTQKSLSLSPGGGGSPSDIQMTQSPSSVSASVGDRVTITCRASQSLLFSVNQKNYLAWYQQKPGKAPKLLIYWASSLQSGVPSRFSGSGSGTDFTLTISSLQPEDFATYYCQHYYSYPWTFGQGTKVEIKGGGGSGGGGSGGGGSGGGGSQVQLVQSGAEVKKPGSSVKVSCKASGYTFSTSWIEWIRQAPGQGLEWMGSILPGSGSTNYAQKFQGRVTITADTSTSTAYMELSSLRSEDTAVYYCARGDDGSYVRWYFDHWGQGTLVTVSS
notes: also called Parent; DDG (Original)
B2: PC401144 (bispecific antibody)
chain: B1 chain with L512T, Q588C, G659C, A676N, V720N
B3: PC401124 (bispecific antibody)
chain: B1 chain with A676N, V720N
notes: also called H-Ala60Asn + H-Val100aAsn
B4: PC401145 (bispecific antibody)
chain: B1 chain with Q588C, G659C, A676N, V720N
B5: PC401120 (bispecific antibody)
chain: B1 chain with Q588C, G659C
notes: also called L-Gln100Cys + H-Gly44Cys
B6: PC401119 (bispecific antibody)
chain: B1 chain with A676N
notes: also called H-Ala60Asn
B7: PC401122 (bispecific antibody)
chain: B1 chain with V720N
notes: also called H-Val100aAsn
B8: CD4001152 (Fc fusion)
scFv: QIVMTQSPDSLALSLGERATMNCKSSQSLLFSVNQKNYLAWYQQKPGQAPRLLIYWASTRESGVPDRFSGSGSGTDFTLTISRLEPEDVATYYCQHYYSYPWTFGAGTKLEIKGGGGSGGGGSGGGGSGGGGSQVQLVQSGAEVKKPGASVKVSCKASGYTFSTSWIEWVRQAPGQGLEWIGEILPGSGSTNYAQKFQGRATFTADTSTSTAYMELSSLRSEDTAVYYCARGDDGSYVRWYFDVWGQGTTVTVSS
notes: Humanized 1D5 scFv variant, as told of in Fc-scFv format; not shown: the human Fc and any Fc-scFv linker; neither the Fc entry nor the scFv position (N- or C-terminal) is fixed for this construct
B9: CD4001163 (Fc fusion)
scFv: B8 scFv with L13V, M21I, L110V, I167M, I181M, A201V, F203M, A205R, A212V
notes: As m85; not shown: Fc (hinge-CH2-CH3) and any Fc-scFv linker of the tested fusion
B10: CD4001103 (Fc fusion)
scFv: B8 scFv with D9G, S10T, A12S, L15P, N22T, V89A, Q136K, V170I
notes: As m82; not shown: the human Fc (hinge-CH2-CH3) of the scFv-hFc format
B11: CD4001090 (Fc fusion)
chain: EVVMTQSPDFQSVTPKEKVTITCRSSQSLVHYNGYTYLHWYQQKPDQSPKLLIYKVSNRFSGVPSRFSGSGSGTDFTLTINSLEAEDAAAYFCSQTTHVPLTFGPGTKVDIKGGGGSGGGGSGGGGSGGGGSEVQLVESGGGVVQPGRSLRLSCAASGFTFSSYAMSWVRQAPGKGLEWVASISSAGTYIYYADSVKGRFTISRDNSKNTLYLQMNGLRAEDTAVYYCARHGNGYDPLWYFDVWGQGTLVTVSS
notes: As m65; not shown: wildtype IgG1 Fc region
B12: CD4001088 (Fc fusion)
chain: B11 chain with V143L, K197Q, S207G, T210S, G217S, V225L, L249M
notes: as for B11
B13: CD4001099 (Fc fusion)
chain: B11 chain with V143L, V144E, R148G, G217S, L249T
notes: as for B11

Each binder was assayed against T1, Human PD-L1 full-length (human, UniProt Q9NZQ7 19-290) (assay: flow cytometry, CHOK1SV/human PD-L1 cells).
T1 construct: also called PDL01021; CHOK1SV/huPDL1
T1 sequence (Q9NZQ7 19-290): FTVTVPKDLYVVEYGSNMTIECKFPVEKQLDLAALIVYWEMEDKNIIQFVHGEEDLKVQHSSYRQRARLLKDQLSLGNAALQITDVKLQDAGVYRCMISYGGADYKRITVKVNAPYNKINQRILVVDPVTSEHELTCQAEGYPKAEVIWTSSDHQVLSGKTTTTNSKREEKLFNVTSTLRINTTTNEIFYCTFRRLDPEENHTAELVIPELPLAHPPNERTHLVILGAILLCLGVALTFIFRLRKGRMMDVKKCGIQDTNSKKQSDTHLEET
With B1 the “EC50 (read off the curve)” value was about 3 nM. B2: binds. B3: binds. B4: binds.

Molecular target: T1, Human PD-L1 full-length
Assay: flow cytometry, CHOK1SV/human PD-L1 cells
Remark: another data set of the same source
For B1, the “EC50 (read off the curve)” value was about 3 nM. For B5, the “EC50 (read off the curve)” value was about 3 nM. B6 was tested, and the “EC50 (read off the curve)” value was about 5 nM. For B7, the “EC50 (read off the curve)” value was about 3 nM.

The binders below were run against T2, human CD40 full-length (human, UniProt P25942 21-277) (assay: on-cell binding).
T2 construct: Also used for CD40 of Daudi cells, of CD40-expressing HEK293 cells and of the BPS CD40/NFkB HEK293 reporter cells where the row says so; also called CD4001012; CHOK1SV/CD40
B8: no binding. B9: no binding.

Each binder was assayed against T2, human CD40 full-length (assay: flow cytometry, Daudi cells (endogenous CD40)).
B2: binds. B4: binds.

Molecular target: T3, Cynomolgus CHOK1SV/CD40
T3 construct: also called Cyno CD40 full-length; CD4001013
T3 receptor chain: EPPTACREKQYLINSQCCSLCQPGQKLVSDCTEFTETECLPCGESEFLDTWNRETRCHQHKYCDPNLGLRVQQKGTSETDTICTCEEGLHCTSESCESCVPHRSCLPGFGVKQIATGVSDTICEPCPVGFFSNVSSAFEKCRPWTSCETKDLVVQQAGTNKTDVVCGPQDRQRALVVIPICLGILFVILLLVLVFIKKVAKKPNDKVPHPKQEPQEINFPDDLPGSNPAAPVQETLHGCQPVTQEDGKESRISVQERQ
Assay: flow cytometry, CHOK1SV/cynomolgus CD40 cells
B2: binds. B4: binds.

These binders were tested against T4, human neonatal Fc receptor (FcRn, complexed with beta-2-macroglobulin) (human, UniProt P55899 24-297; P61769 21-119) (assay: SPR, FcRn/b2m immobilized, bispecific injected, pH 6.0, two-state reaction fit).
T4 construct: also called Human FcRn/b2m
T4 sequence (P55899 24-297 limits assumed, chain 1 of 2): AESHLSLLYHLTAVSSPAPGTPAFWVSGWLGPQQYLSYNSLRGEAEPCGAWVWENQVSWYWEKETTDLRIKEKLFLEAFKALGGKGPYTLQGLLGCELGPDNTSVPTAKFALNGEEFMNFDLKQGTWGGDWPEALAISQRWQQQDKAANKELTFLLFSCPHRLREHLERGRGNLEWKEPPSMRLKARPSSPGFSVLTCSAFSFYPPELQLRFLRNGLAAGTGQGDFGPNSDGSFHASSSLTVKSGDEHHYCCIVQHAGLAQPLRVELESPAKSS
T4 sequence (P61769 21-119 limits assumed, chain 2 of 2): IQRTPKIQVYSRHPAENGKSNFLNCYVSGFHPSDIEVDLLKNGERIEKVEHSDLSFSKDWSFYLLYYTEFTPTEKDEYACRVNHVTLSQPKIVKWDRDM
Work on B1 yielded a Kd of 121 nM. B5 showed a Kd of 146 nM. B6 gave a Kd of 122 nM. B3 showed a Kd of 144 nM. Work on B7 yielded a Kd of 134 nM.

What follows are binders tested against T5, human CD40 ECD- HAC tag (human) (assay: SPR (Biacore T200), bispecific captured on the chip, monovalent CD40 ECD injected).
T5 construct: also called CD4001006; recombinant monomeric human CD40 ectodomain (ECD)
B5 gave a Kd of 74 nM, a koff of 0.00054 s⁻¹ and a kon of 7200 M⁻¹ s⁻¹. B2 showed a Kd of 81 nM, a koff of 0.00059 s⁻¹ and a kon of 7300 M⁻¹ s⁻¹. B6 gave a Kd of 57 nM, a koff of 0.0004 s⁻¹ and a kon of 7000 M⁻¹ s⁻¹. Binder B7 has a Kd of 69 nM, a koff of 0.0006 s⁻¹ and a kon of 8700 M⁻¹ s⁻¹. B4 gave a Kd of 81 nM, a koff of 0.00061 s⁻¹ and a kon of 7600 M⁻¹ s⁻¹.

What follows are binders tested against T2, human CD40 full-length (assay: flow cytometry, CHOK1SV/human CD40 cells).
B10: binds.

These binders were tested against T2, human CD40 full-length (assay: binding to cells expressing full length human- or cyno-CD40, unpurified small-scale material).
B11: binds. B12: binds. B13: binds.

Molecular target: T3, Cynomolgus CHOK1SV/CD40
Assay: flow cytometry, CHOK1SV/cynomolgus CD40 cells
Remark: another data set of the same source
B1: binds. B5: binds. B6: binds. B3: binds. B7: binds.

Molecular target: T2, human CD40 full-length
Assay: flow cytometry, CHOK1SV/human CD40 cells
Remark: another data set of the same source
B5: binds. B6: binds. B3: binds. B7: binds.
